Assay results: patent US6333406A, “Gene encoding protein antigens of Plasmodium falciparum and uses therefor” (priority 1994, dated 2001)
Where “and” joins values, the source holds several entries; their conditions need not be identical. Equal entries are not always repeated.

Columns and labels:
[1] = target: SE47' recombinant SERA protein produced in E. coli (Plasmodium falciparum); assay: ELISA of control mouse serum
[2] = target: SE50A recombinant SERA protein produced in E. coli (Plasmodium falciparum); assay: ELISA of control rat serum
[3] = target: T1, DHFR^Ser108 (reconstructed P. falciparum DHFR) (Plasmodium falciparum, UniProt P13922, N108S/R59C); assay: Inhibition of recombinant DHFR activity, spectrophotometric assay with Dixon plot analysis; format: biochemical
T1 construct: The gene encoding DHFR part of the P. falciparum DHFR-TS complex; made in house; host or cells: E. coli JM103, plasmid pET-PfDHFR^Ser108 (pET-3a), induced with M13-pKM2
Source text: (§1) The decrease in A340 was monitored by a HITACHI spectrophotometer U-2000. The blank sample consisted of all the reaction components except the enzyme.

[4] = tested on: DHFR^Thr108 (reconstructed P. falciparum DHFR); settings: Dixon plots for DHFR^Thr108 and DHFR^Ser108 (FIGS. 19A-19F)
Source text: as §1

[5] = tested on: NC(=O)C1=CN([C@@H]2O[C@H](COP(=O)(O)OP(=O)(O)OC[C@H]3O[C@@H](n4cnc5c(N)ncnc54)[C@H](OP(=O)(O)O)[C@@H]3O)[C@@H](O)[C@H]2O)C=CC1; assay: purified protein, by the assay type; settings: other: substrate Km, reconstructed P.f. DHFR Thr108 (Table IV); pH 7.6; 37.0 °C
[6] = tested on: Plasmodium falciparum (FCR3); assay: Plasmodium falciparum growth inhibition with anti-SERA serum; format: cell-based; settings: FCR3 culture, serum dilutions, parasitemia after 72 hours (FIGS. 16A-16B)
Procedure: FIGS. 16A and 16B show Plasmodium falciparum growth inhibition with anti-SER47' and anti-SE50A serum. […] The inhibition confirms that the new constructs of SERA (FIG. 10, FIG. 11, and FIG. 12) produce immunogenic material and that adjuvant enhances the induction of parasite inhibitory levels of antibodies.
The Plasmodium falciparum cell (FCR3) was grown in an in vitro culture containing 5% red blood cells (RBC). When the parasitized RBC, 96% were trophozoite and schizont, reached 4.4% of total RBC, the culture was diluted to 1% of parasitized cell in total RBC and 2% of RBC in medium. The 100 µl of the diluted culture was incubated in a 96 well dish. The culture media which contains rat or mouse serum at the indicated dilution were changed each 24 hours. Parasitemia was measured by Giemsa staining after 72 hours incubation. The sera used here were from the animal #3 of SE47' and #1 of SE50A, each of whose ELISA titer was described in Table VI.

[7] = tested on: SERA protein; assay: Immunoblot of whole cellular proteins of Plasmodium falciparum FCR3 strain with antiserum against SE47' or SE50A; format: binding; settings: mouse anti-SE47' serum, rat anti-SE50A serum
Procedure: The antisera used for the immunoblot were as follows: lane 1, control mouse serum; lane 2, mouse anti-SF47' serum; lane 3, control rat serum; lane 4, rat anti-SE50A serum. The arrow indicates the molecular weight corresponding to SERA protein.
Parasite cells were isolated by saponin lysis of the in vitro culture. The prepared cells were analyzed by immunoblotting using SDS-polyacrylamide gel electrophoresis (12.5%). The antisera used for the immunoblot (FIG. 15) were as follows: lane 1, control mouse serum; lane 2, mouse #3 anti-SE47' serum; lane 3, control rat serum; lane 4, rat #1 anti-SE50A serum. The arrow indicates the molecular weight corresponding to SERA protein.

[8] = tested on: SE50A; assay: ELISA value of rat sera immunized with recombinant SERA protein SE50A; format: in vivo; settings: individual rats 1-3; subcutaneous, insoluble form without adjuvant, days 1, 22, 50
Source text: The SE50A protein was produced in E. coli cells as described for SE47'. The products were obtained as an inclusion body in the precipitate of lysed cells. The precipitate was solubilized with a buffer containing 5M guanidine HCl. After removal of insoluble materials, SE50A protein was precipitated by removing the 5M guanidine HCl again. These processes were repeated 3 times. The final precipitate contained SE50A at more than 80% purity. Three rats were immunized by subcutaneous injection of the insoluble form of SE50A without adjuvant three times on days 1, 22, and 50.

[9] = substrate Km of DHFR^Ser108, as stated in text
[10] = substrate Km, reconstructed P.f. DHFR Ser108 (Table IV)

Molecule “control mouse serum (polyclonal serum or antibody)” has an ELISA Titer [1] of less than 200.

“control rat serum (polyclonal serum or antibody)” was tested, and the ELISA Titer [2] was less than 50.

With `NC(=O)C1=CN([C@@H]2O[C@H](COP(=O)(O)OP(=O)(O)OC[C@H]3O[C@@H](n4cnc5c(N)ncnc54)[C@H](OP(=O)(O)O)[C@@H]3O)[C@@H](O)[C@H]2O)C=CC1` [NADPH] the Km [3, 9] was 90 µM and the Km [3, 10] was 90.2 ± 4.3 µM.

`CN(Cc1cnc2nc(N)nc(N)c2n1)c1ccc(C(=O)N[C@@H](CCC(=O)O)C(=O)O)cc1` [methotrexate] was tested, and the “manner of enzyme inhibition” value [4] was “competitive”.

Work on `Nc1nc2c(c(=O)[nH]1)N=C(CNc1ccc(C(=O)N[C@@H](CCC(=O)O)C(=O)O)cc1)CN2` [DHF] yielded a Km [3, 9] of 67 µM and a Km [3, 10] of 66.6 ± 2.6 µM.

With “DHFR^Thr108 (reconstructed P. falciparum DHFR) (Plasmodium falciparum K1; N108T/R59C)” the Km [5] was 19.2 ± 0.4 µM.

For `CCc1nc(N)nc(N)c1-c1ccc(Cl)cc1` [pyrimethamine], the “manner of enzyme inhibition” value [4] was “competitive”.

B1: SE50A: recombinant portion of the 50 kd processed SERA protein, SEQ ID NO: 17, produced in E. coli as inclusion body (protein)
chain: MKDENNCISNLQVEDQGNCDTSWIFASKYHLETIRCMKGYEPTKISALYVANCYKGEHKDRCDEGSSPMEFLQIIEDYGFLPAESNYPYNYVKVGEQCPKVEDHWMNLWDNGKILHNKNEPNSLDGKGYTAYESERFHDNMDAFVKIIKTEVMNKGSVIAYIKAENVMGYEFSGKKVQNLCGDDTADHAVNIVGYGNYVNSEGEKKSYWIVRNSWGPYWGDEGYFKVDMYGPTHCHIEF
With B1 the “parasite growth inhibition by antiserum raised against the protein” value [6] was “indistinguishable from control serum except at the lowest dilution”, the “recognition of SERA protein by antiserum in immunoblot” value [7] was “recognize the complete SERA protein” and the “ELISA Titer” value [8] was 10,000 and 8,330.
